This note sets out measurements from paper doi:10.1101/2020.07.27.223107 (bioRxiv, 2020).

Usually stoichiometry N stands for the number of molecules, sites or subunits per partner or assembly.

This series concerns the molecule itself. Put plainly: SEC-MALLS.

B1: N-terminal fragment of human SNED1 (amino acids 1 to 260, includes the NIDO domain), FLAG-tagged (domain or fragment, UniProt Q8TER0 25-260, looked up)
chain: AVALADFYPFGAERGDAVTPKQDDGGSGLRPLSVPFPFFGAEHSGLYVNNNGIISFLKEVSQFTPVAFPIAKDRCVVAAFWADVDNRRAGDVYYREATDPAMLRRATEDVRHYFPELLDFNATWVFVATWYRVTFFGGSSSSPVNTFQTVLITDGKLSFTIFNYESIVWTTGTHASSGGNATGLGGIAAQAGFNAGDGQRYFSIPGSRTADMAEVETTTNVGVPGRWAFRIDDAQV
modifications: N-glycosylated; phosphorylated on serine and threonine residues (sites not mapped)
Regarding B1, the “stoichiometry N” value was 2.

B2: full-length human SNED1 (Sushi, nidogen and EGF-like domain-containing protein 1), FLAG-tagged (natural protein, UniProt Q8TER0 25-1413, looked up)
chain: AVALADFYPFGAERGDAVTPKQDDGGSGLRPLSVPFPFFGAEHSGLYVNNNGIISFLKEVSQFTPVAFPIAKDRCVVAAFWADVDNRRAGDVYYREATDPAMLRRATEDVRHYFPELLDFNATWVFVATWYRVTFFGGSSSSPVNTFQTVLITDGKLSFTIFNYESIVWTTGTHASSGGNATGLGGIAAQAGFNAGDGQRYFSIPGSRTADMAEVETTTNVGVPGRWAFRIDDAQVRVGGCGHTTSVCLALRPCLNGGKCIDDCVTGNPSYTCSCLSGFTGRRCHLDVNECASQPCQNGGTCTHGINSFRCQCPAGFGGPTCETAQSPCDTKECQHGGQCQVENGSAVCVCQAGYTGAACEMDVDDCSPDPCLNGGSCVDLVGNYTCLCAEPFKGLRCETGDHPVPDACLSAPCHNGGTCVDADQGYVCECPEGFMGLDCRERVPDDCECRNGGRCLGANTTLCQCPLGFFGLLCEFEITAMPCNMNTQCPDGGYCMEHGGSYLCVCHTDHNASHSLPSPCDSDPCFNGGSCDAHDDSYTCECPRGFHGKHCEKARPHLCSSGPCRNGGTCKEAGGEYHCSCPYRFTGRHCEIGKPDSCASGPCHNGGTCFHYIGKYKCDCPPGFSGRHCEIAPSPCFRSPCVNGGTCEDRDTDFFCHCQAGYMGRRCQAEVDCGPPEEVKHATLRFNGTRLGAVALYACDRGYSLSAPSRIRVCQPHGVWSEPPQCLEIDECRSQPCLHGGSCQDRVAGYLCLCSTGYEGAHCELERDECRAHPCRNGGSCRNLPGAYVCRCPAGFVGVHCETEVDACDSSPCQHGGRCESGGGAYLCVCPESFFGYHCETVSDPCFSSPCGGRGYCLASNGSHSCTCKVGYTGEDCAKELFPPTALKMERVEESGVSISWNPPNGPAARQMLDGYAVTYVSSDGSYRRTDFVDRTRSSHQLQALAAGRAYNISVFSVKRNSNNKNDISRPAVLLARTRPRPVEGFEVTNVTASTISVQWALHRIRHATVSGVRVSIRHPEALRDQATDVDRSVDRFTFRALLPGKRYTIQLTTLSGLRGEEHPTESLATAPTHVWTRPLPPANLTAARVTATSAHVVWDAPTPGSLLEAYVINVTTSQSTKSRYVPNGKLASYTVRDLLPGRRYQLSVIAVQSTELGPQHSEPAHLYIITSPRDGADRRWHQGGHHPRVLKNRPPPARLPELRLLNDHSAPETPTQPPRFSELVDGRGRVSARFGGSPSKAATVRSQPTASAQLENMEEAPKRVSLALQLPEHGSKDIGNVPGNCSENPCQNGGTCVPGADAHSCDCGPGFKGRRCELACIKVSRPCTRLFSETKAFPVWEGGVCHHVYKRVYRVHQDICFKESCESTSLKKTPNRKQSKSQTLEKS
modifications: N-glycosylated; phosphorylated on serine and threonine residues (sites not mapped)
Take B2: the “stoichiometry N” value was determined as 2.
